Assay results reported in publication PMC4973471 (Nature structural & molecular biology, 2016).

B1: 2-site HSE (dsDNA)
DNA 1: GGTTCTAGAACC
DNA 2: GGTTCTAGAACC
B2: human HSF2 DNA-binding domain (amino acids 8–115) (domain or fragment, UniProt Q03933 8-115, looked up)
chain: PAFLSKLWTLVEETHTNEFITWSQNGQSFLVLDEQRFAKEILPKYFKHNNMASFVRQLNMYGFRKVVHIDSGIVKQERDGPVEFQHPYFKQGQDDLLENIKRKVSSSK

Key:
HSF2 DBD = HSF2 DBD (Homo sapiens, UniProt Q03933 8-115); test: X-ray crystallography
crystal structure = biological target: the molecule itself; test: crystal structure

Binder	binding result (HSF2 DBD)	binding result (crystal structure)
B1	binds	
B2		binds
